# Results reported in the supplement of paper PMC7877785.
# ± gives the uncertainty stated by the source.
# Experiment: self-splicing fitness, log relative to wild type (ln ratio); higher = more splicing; Tetrahymena group I intron in knt gene, E. coli kanamycin selection, DiMSum; sequences stand for … in CUCUCU…GGAGGGAAAAGUUAUCAGGCAUGCACCUGGUAGCUAGUCUUUAAACCAAUAGAUUGCAUCGGUUUAAAAGGCAAGACCGUCAAAUUGCGGGAAAGGGGUCAACAGCCGUUCAGUACCAAGUCUCAGGGGAAACUUUGAGAUGGCCUUGCAAAGGGUAUGGUAAUAAGCUGACGGACAUGGUCCUAACCACGCAGCCAAGUCCUAAGUCAACAGAUCUUCUGUUGAUAUGGAUGCAGUUCACAGACUAAAUGUCGGUCGGGGAAGAUGUAUUCUUCUCAUAAGAUAUAGUCGGACCUCUCCUUAAUGGGAGCUAGCGGAUGAAGUGAUGCAACACUGGAGCCGCUGGGAACUAAUUUGUAUGCGAAAGUAUAUUGAUUAGUUUUGGAGUACUCGUGGUCG
# In short: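 Pooled colonies went to amplicon sequencing on an Illumina HiSeq 2500 after six replicate transformations. The plates were LB agar with 100 μg/mL carbenicillin, 50 μM IPTG and 0.2% rhamnose, with or without 25 μg/mL kanamycin, incubated overnight at 37°C or 30°C. The E. coli BL21(DE3) library had all eight P1ex-region intron nucleotides randomised, the intron placed in the knt kanamycin-resistance gene on pET-22b(+). DiMSum fitness is the error-weighted combination of replicate fold changes, kanamycin against none, normalised to wild type.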
Sequence,self-splicing fitness (ln) (30 °C),self-splicing fitness (ln) (37 °C)
ACCCAGCAAUAUUACGUGUG,-2.63 ± 0.062,-1.07 ± 0.064
CCCGAGCAAUAUUACGAGAU,-3.49 ± 0.21,-2.59 ± 0.3
GAUUAGCAAUAUUACGUACC,-1.71 ± 0.22,0.563 ± 0.21
UGAAAGCAAUAUUACGGUGC,-2.02 ± 0.38,-2.61 ± 0.36
GUGUAGCAAUAUUACGUAGC,-3.09 ± 0.23,-1.41 ± 0.28
CAACAGCAAUAUUACGUCUU,-1.48 ± 0.061,-0.62 ± 0.07
AUUGAGCAAUAUUACGAUGG,-2.84 ± 0.25,
AAGAAGCAAUAUUACGGUUU,-1.44 ± 0.068,-0.413 ± 0.087
GAUUAGCAAUAUUACGCGAC,-3.24 ± 0.31,-2.32 ± 0.23
AACCAGCAAUAUUACGCCCG,-0.353 ± 0.1,-0.271 ± 0.17
UAUAAGCAAUAUUACGACUA,0.0842 ± 0.075,0.29 ± 0.094
ACAUAGCAAUAUUACGGUUG,-2.29 ± 0.079,-1.95 ± 0.1
UGUGAGCAAUAUUACGCAUA,-1.6 ± 0.23,-2.46 ± 0.33
GCGGAGCAAUAUUACGGGAG,-2.36 ± 0.42,-0.916 ± 0.48
GUUUAGCAAUAUUACGGAGA,,-2.24 ± 0.46
AGGAAGCAAUAUUACGUAGG,-3 ± 0.15,-2.3 ± 0.23
GCAGAGCAAUAUUACGGGGC,-3.05 ± 0.36,
UUAUAGCAAUAUUACGUUUU,-3.61 ± 0.25,-2.64 ± 0.28
CUGGAGCAAUAUUACGGGGA,-3.21 ± 0.28,-2.39 ± 0.37
CCUCAGCAAUAUUACGUAAA,-3.87 ± 0.24,-3.05 ± 0.29

Sequence,self-splicing fitness (ln) (30 °C),self-splicing fitness (ln) (37 °C)
UUAGAGCAAUAUUACGACGU,-2.39 ± 0.17,-0.776 ± 0.21
UAACAGCAAUAUUACGCUCC,-2.62 ± 0.32,-1.22 ± 0.3
GGAGAGCAAUAUUACGUAAU,,-0.814 ± 0.2
GCUCAGCAAUAUUACGUAUG,-2.44 ± 0.076,-1.62 ± 0.091
UAUUAGCAAUAUUACGUCUU,-1.86 ± 0.14,-0.681 ± 0.15
GUCAAGCAAUAUUACGGUAG,-3.35 ± 0.18,-4.66 ± 0.38
GGAUAGCAAUAUUACGCAAG,-1.28 ± 0.27,-0.103 ± 0.34
AAAGAGCAAUAUUACGGCGC,-2.27 ± 0.2,-0.545 ± 0.21
GGUAAGCAAUAUUACGUAAC,-1.86 ± 0.13,-0.278 ± 0.15
AGUAAGCAAUAUUACGAUGC,-2.58 ± 0.19,-1.67 ± 0.15
GUCCAGCAAUAUUACGUUGC,-2.05 ± 0.13,-0.538 ± 0.16
AAGCAGCAAUAUUACGAUAA,-1.69 ± 0.12,-1.16 ± 0.13
AGCUAGCAAUAUUACGAUCA,-2.01 ± 0.12,-0.168 ± 0.11
CUAUAGCAAUAUUACGUUGU,-3.77 ± 0.19,-3.85 ± 0.33
GAUUAGCAAUAUUACGGCAA,-0.324 ± 0.15,-0.0501 ± 0.18
UGUUAGCAAUAUUACGGGAU,-1.94 ± 0.23,
UACGAGCAAUAUUACGGUUU,-3.06 ± 0.17,-2.32 ± 0.18
CAUAAGCAAUAUUACGAGGU,-2.81 ± 0.16,-2.6 ± 0.18
AGCUAGCAAUAUUACGGAUA,-2.55 ± 0.17,-1.87 ± 0.14
UUAUAGCAAUAUUACGACGC,-2.63 ± 0.45,
